From IntAct's records for PubMed 21808041 come the findings set out here.

B1: Non-structural protein 1 (Influenza B virus (strain B/Lee/1940)), P03502 (parent)
chain: MADNMTTTQIEVGPGATNATINFEAGILECYERFSWQRALDYPGQDRLHRLKRKLESRIKTHNKSEPENKRMSLEERKAIGVKMMKVLLFMDPSAGIEGFEPYCVKNPSTSKCPNYDWTDYPPTPGKYLDDIEEEPENVDHPIEVVLRDMNNKDARQKIKDEVNTQKEGKFRLTIKRDIRNVLSLRVLVNGTFLKHPNGDKSLSTLHRLNAYDQNGGLVAKLVATDDRTVEDEKDGHRILNSLFERFDEGHSKPIRAAETAVGVLSQFGQEHRLSPEEGDN

In this assay the parent is B1. The note with it: with isg15_human ISG15, P05161.
isg15_human ISG15, P05161, sequence (P05161 whole entry): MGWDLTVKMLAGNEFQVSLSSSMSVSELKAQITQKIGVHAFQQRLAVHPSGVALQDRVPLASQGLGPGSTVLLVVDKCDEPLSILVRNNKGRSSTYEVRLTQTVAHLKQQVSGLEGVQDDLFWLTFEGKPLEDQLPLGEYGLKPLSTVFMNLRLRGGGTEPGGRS
Turning to MADNMTTTQIEVGPGATNATINFEAGILECYERFSWQRALDYPGQDRLHRLKRKLESRIKTHNKSEPENKRMSLEERKAIGVKMMKVLLFADPSAGIEGAEPYCVKNPSTSKCPNYDWTDYPPTPGKYLDDIEEEPENVDHPIEVVLRDMNNKDARQKIKDEVNTQKEGKFRLTIKRDIRNVLSLRVLVNGTFLKHPNGDKSLSTLHRLNAYDQNGGLVAKLVATDDRTVEDEKDGHRILNSLFERFDEGHSKPIRAAETAVGVLSQFGQEHRLSPEEGDN [M91A;F100A], the “effect of a mutation on the interaction” value is on record as “decreasing interaction strength”. To MADNMTTTQIEVGPGATNATINFEAGILECYERFSAARALDYPGQDRLHRLKRKLESRIKTHNKSEPENKRMSLEERKAIGVKMMKVLLFMDPSAGIEGFEPYCVKNPSTSKCPNYDWTDYPPTPGKYLDDIEEEPENVDHPIEVVLRDMNNKDARQKIKDEVNTQKEGKFRLTIKRDIRNVLSLRVLVNGTFLKHPNGDKSLSTLHRLNAYDQNGGLVAKLVATDDRTVEDEKDGHRILNSLFERFDEGHSKPIRAAETAVGVLSQFGQEHRLSPEEGDN [W36A;Q37A] belongs “disrupting interaction strength”.
